Columns and labels:
[1] = target: beta-subunit of ATP synthase (F1 domain) on the cell surface of human hepatocytes (human) (UniProt P06576); assay: cell-based or functional assay
[2] = target: ectopic ATP synthase of rat liver (rat) (UniProt P10719); assay: cell-based or functional assay
[3] = target: beta-subunit of ATP synthase (F1 domain) on the cell surface of human hepatocytes (human) (UniProt P06576)

Sequence of beta-subunit of ATP synthase (F1 domain) on the cell surface of human hepatocytes (human) (P06576 48-529 E274Q limits assumed): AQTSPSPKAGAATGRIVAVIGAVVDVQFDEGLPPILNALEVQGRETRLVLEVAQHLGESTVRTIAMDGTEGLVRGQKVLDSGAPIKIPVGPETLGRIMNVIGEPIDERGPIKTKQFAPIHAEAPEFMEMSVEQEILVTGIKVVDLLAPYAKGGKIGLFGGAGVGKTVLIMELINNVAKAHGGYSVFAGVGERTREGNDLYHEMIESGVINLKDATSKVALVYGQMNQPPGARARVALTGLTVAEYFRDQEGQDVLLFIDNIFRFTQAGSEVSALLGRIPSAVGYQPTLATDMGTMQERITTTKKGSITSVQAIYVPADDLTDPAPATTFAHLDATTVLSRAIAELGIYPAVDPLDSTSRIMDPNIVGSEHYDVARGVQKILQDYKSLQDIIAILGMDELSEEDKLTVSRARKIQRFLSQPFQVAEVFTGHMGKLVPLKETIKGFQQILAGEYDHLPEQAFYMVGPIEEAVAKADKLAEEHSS
Sequence of ectopic ATP synthase of rat liver (rat) (P10719 47-529, chain 1 of 2): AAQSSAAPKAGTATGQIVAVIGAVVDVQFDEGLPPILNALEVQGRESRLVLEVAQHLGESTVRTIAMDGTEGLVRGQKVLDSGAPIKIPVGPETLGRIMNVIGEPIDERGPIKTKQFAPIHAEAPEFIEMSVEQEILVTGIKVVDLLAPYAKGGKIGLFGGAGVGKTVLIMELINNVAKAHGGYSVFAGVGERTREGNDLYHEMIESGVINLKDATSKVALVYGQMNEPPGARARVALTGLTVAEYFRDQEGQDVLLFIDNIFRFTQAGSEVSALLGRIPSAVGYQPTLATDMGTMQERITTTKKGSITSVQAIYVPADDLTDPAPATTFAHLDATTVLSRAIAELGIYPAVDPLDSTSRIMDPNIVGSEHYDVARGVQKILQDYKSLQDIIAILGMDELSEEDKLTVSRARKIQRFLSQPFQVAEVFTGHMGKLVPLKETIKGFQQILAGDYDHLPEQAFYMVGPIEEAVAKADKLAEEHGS
Sequence of ectopic ATP synthase of rat liver (rat) (P15999 44-553, chain 2 of 2, further chain): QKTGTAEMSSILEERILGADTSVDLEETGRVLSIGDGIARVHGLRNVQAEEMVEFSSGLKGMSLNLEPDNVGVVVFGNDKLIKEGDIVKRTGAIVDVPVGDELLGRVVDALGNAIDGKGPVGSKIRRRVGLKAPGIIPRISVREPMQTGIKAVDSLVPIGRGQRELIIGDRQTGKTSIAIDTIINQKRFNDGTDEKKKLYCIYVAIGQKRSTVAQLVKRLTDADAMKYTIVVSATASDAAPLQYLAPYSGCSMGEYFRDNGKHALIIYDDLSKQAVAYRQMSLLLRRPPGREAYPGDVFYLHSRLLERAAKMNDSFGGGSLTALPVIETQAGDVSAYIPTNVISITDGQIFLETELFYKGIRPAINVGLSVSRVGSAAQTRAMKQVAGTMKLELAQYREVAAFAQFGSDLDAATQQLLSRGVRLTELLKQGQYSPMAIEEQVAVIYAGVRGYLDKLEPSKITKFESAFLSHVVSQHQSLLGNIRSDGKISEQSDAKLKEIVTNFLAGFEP

[α-32P]-ADP generated from [α-32P]-ATP at the HepG2 cell surface (HPLC), 100 nM IF1 [1]: 48 % decrease | TG-HDL2 internalisation by perfused rat liver, 45 min, 1 µM IF1 [2]: < 45 % decrease | IC50 (read off the curve), 125I-TG-HDL2 internalisation by HepG2 cells, without apoA-I [3]: 8 nM
B1: IF1 protein, natural inhibitor protein of mitochondrial F1-ATPase (protein, UniProt P01096 26-109, looked up, species assumed)
ATPase inhibitor, mitochondrial: GSESGDNVRSSAGAVRDAGGAFGKREQAEEERYFRARAKEQLAALKKHHENEISHHAKEIERLQKEIERHKQSIKKLKQSEDDD
